From patent US20260166139A1 come the findings set out here.

The target in assay [1] is murine CTLA4 (murine) (UniProt P09793). As to the kind of experiment: ELISA on coated CTLA4, source Mouse. Background: An ELISA detects its analyte on a solid surface through an enzyme-linked reagent.
Assay [2] has the same target. As to the kind of experiment: ELISA, coat murine CTLA4 0.5 ug/ml; antibody 0.01 ug/ml.
Assay [3] has the same target. As to the kind of experiment: ELISA, coat murine CTLA4 0.5 ug/ml; antibody 0.001 ug/ml.
Assay [4] shares this target. As to the kind of experiment: ELISA, coat murine CTLA4 0.5 ug/ml; antibody 0.3 ug/ml.
Assay [5] has the same target. As to the kind of experiment: ELISA, coat murine CTLA4 0.5 ug/ml; antibody 0.03 ug/ml.
The target is the same in assay [6]. As to the kind of experiment: ELISA, coat murine CTLA4 0.5 ug/ml; antibody 0.003 ug/ml.
Assay [7] has the same target. As to the kind of experiment: ELISA, coat murine CTLA4 0.5 ug/ml; antibody 1 ug/ml.
Assay [8] shares this target. As to the kind of experiment: ELISA, coat murine CTLA4 0.5 ug/ml; antibody 0 ug/ml (blank).
For assay [9] the target is unchanged. As to the kind of experiment: ELISA, coat murine CTLA4 0.5 ug/ml; antibody 0.1 ug/ml.
For assay [10] the target is unchanged. As to the kind of experiment: ELISA on coated CTLA4, source taken as Mouse; second unlabelled line under 8D2 / Mouse; the run in which 10D1 gave […] and 11.2.1 was not measured.
Assay [11] shares this target. As to the kind of experiment: ELISA on coated CTLA4, source taken as Mouse.

“And” between values parts separate entries of the source, which are not always exact repeats. Identical values can stand only once.

B1: humanized antibody 8D2H1L1 (antibody, V domains shown)
VH: EVQLVESGGGLVQPGGSMRLSCAASGFTFSDNWMNWVRQAPGKGLEWLAQIRNKPYNYETYYSDSVKGRFTISRDDSKNSVYLQMNSLKTEDTGVYYCTAQFAYWGQGTLVTVSS
VL: DIQMTQSPSSLSASVGDRVTITCRTSENIYGGLNWYQRKQGKSPKLLIYGATNLASGMSSRFSGSGSGTDYTLKISSLHPDDVATYYCQNVLRSPFTFGSGTKLEIK
Consider B1, for which, in the assay with murine CTLA4 (murine) [1], the EC50 – broadly, the concentration giving half of the maximal effect – stood at 0.025 nM.

B2: monoclonal antibody 8D2 (antibody, V domains shown)
VH: EVKLDETGGGLVQPGRPMKLSCVASGFTFSDNWMNWVRQSPEKGLEWLAQIRNKPYNYETYYSDSVKGRFTISRDDSKSSVYLQMNNLRGEDMGIYYCTAQFAYWGQGTLVTVSA
VL: DIQMTQSPASLSASVGETVTITCGTSENIYGGLNWYQRKQGKSPQLLIFGATNLADGMSSRFSGSGSGRQYSLKISSLHPDDVATYYCQNVLRSPFTFGSGTKLEI
For B2, the absorbance at 450 nm in the assay with murine CTLA4 (murine) [2] is 1.61 and 1.56; with murine CTLA4 (murine) [3], 0.358 and 0.355; with murine CTLA4 (murine) [4], 2.81 and 2.76; with murine CTLA4 (murine) [5] it was 2.34 and 2.38; with murine CTLA4 (murine) [6], 0.784 and 0.76; with murine CTLA4 (murine) [7] it was 2.82 and 2.68. The absorbance at 450 nm with murine CTLA4 (murine) [8] is 0.063 and 0.052; with murine CTLA4 (murine) [9], 2.75 and 2.72. In addition, the 50% effective concentration (EC50) in the assay with murine CTLA4 (murine) [1] was 0.015 nM; with murine CTLA4 (murine) [10], 0.071 nM.

B3: 8D2 recombinant antibody, 8D2(Re) (antibody, V domains shown)
VH: EVKLDETGGGLVQPGRPMKLSCVASGFTFSDNWMNWVRQSPEKGLEWLAQIRNKPYNYETYYSDSVKGRFTISRDDSKSSVYLQMNNLRGEDMGIYYCTAQFAYWGQGTLVTVSA
VL: DIQMTQSPASLSASVGETVTITCGTSENIYGGLNWYQRKQGKSPQLLIFGATNLADGMSSRFSGSGSGRQYSLKISSLHPDDVATYYCQNVLRSPFTFGSGTKLEI
For B3, the absorbance at 450 nm with murine CTLA4 (murine) [2] was 1.4 and 1.45; with murine CTLA4 (murine) [3], 0.315 and 0.321; with murine CTLA4 (murine) [4] it was 2.69 and 2.73; with murine CTLA4 (murine) [5], 2.31 and 2.26; in the assay with murine CTLA4 (murine) [6], 0.662 and 0.674; with murine CTLA4 (murine) [7], 2.67 and 2.77. The absorbance at 450 nm with murine CTLA4 (murine) [8] was 0.053 and 0.046; in the assay with murine CTLA4 (murine) [9] it was 2.8 and 2.69. Further, the half-maximal effective concentration (EC50) with murine CTLA4 (murine) [11] came to 0.085 nM; in the assay with murine CTLA4 (murine) [1], 0.015 nM.
